Source: patent publication US20240052034A1 (PANDION OPERATIONS, published 2024)

T1: Fc-tagged mouse PD-1 (mouse, UniProt Q02242 25-167, limits assumed)
T1 construct: Printed 'Fe-tagged', read as Fc-tagged; also called Fe-tagged mouse PD-1 (so in the source); not shown: Fc tag
T1 sequence (looked up): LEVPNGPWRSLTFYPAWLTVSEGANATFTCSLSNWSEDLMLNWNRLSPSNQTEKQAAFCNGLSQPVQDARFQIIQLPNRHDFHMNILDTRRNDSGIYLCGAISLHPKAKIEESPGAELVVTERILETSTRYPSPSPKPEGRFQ

T2: mouse PD-1 (mouse, UniProt Q02242 25-167, limits assumed)
T2 sequence (looked up): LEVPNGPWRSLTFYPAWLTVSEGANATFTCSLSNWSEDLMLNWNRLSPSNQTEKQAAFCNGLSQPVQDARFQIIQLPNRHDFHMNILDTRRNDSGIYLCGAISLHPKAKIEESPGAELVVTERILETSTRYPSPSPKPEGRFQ


Assays:
[1] = molecular target: T3, Fc-tagged cynomolgus PD-1 (cynomolgus, UniProt B0LAJ3 25-170); experiment: BLI (biosensor): Fc-tagged PD-1 on anti-human IgG Fc tips, fragment in solution
T3 construct: Printed 'Fe-tagged', read as Fc-tagged; also called cyno PD-1; Fe-tagged cynomolgus PD-1 (so in the source)
Method: (§1) Anti-human IgG Fc (AHC) or Streptavidin (SA) biosensor were equilibrated in assay buffer for 20 minutes. Fe-tagged mouse and cynomolgus PD-1 was diluted to 5 μg/mL and biotinylated huPD-1 article was diluted to 0.5 μg/mL in assay buffer (1×PBS, 1% BSA, 0.05% Tween20). […] PD-1 was loaded on tips for 180 s followed by a 180 s association phase with PD-1 and 180 s dissociation phase in assay buffer.

Fc-tagged mouse PD-1 = molecular target: T1, Fc-tagged mouse PD-1; experiment: as above
Method: as §1

[2] = molecular target: PD-1 on PD-1 reporter Jurkat cells (UniProt Q15116 25-288, limits assumed); experiment: cell-based or functional assay
mouse PD-1 = molecular target: T2, mouse PD-1; experiment: BLI (biosensor): test article on anti-human IgG Fc tips, PD-1 in solution
Method: (§2) Anti-human IgG Fc (AHC) biosensors were equilibrated in assay buffer for 20 minutes. Test articles were diluted to 10 μg/mL in assay buffer (lx PBS, 1% BSA, 0.05% Tween20). A seven-point serial dilution of human PD-1 was prepared in assay buffer, starting at 1000 nM down to 15.625 nM (human PD-1) or 2000 nM down to 31.25 nM (mouse PD-1). Test articles were loaded on tips for 180 s followed by a 180 s association phase with PD-1 and 180 s dissociation phase in assay buffer.
as §2, with “article was” for “articles were”, “(human and cyno” for “(human”

Chain of PD-1 on PD-1 reporter Jurkat cells (Q15116 25-288 limits assumed): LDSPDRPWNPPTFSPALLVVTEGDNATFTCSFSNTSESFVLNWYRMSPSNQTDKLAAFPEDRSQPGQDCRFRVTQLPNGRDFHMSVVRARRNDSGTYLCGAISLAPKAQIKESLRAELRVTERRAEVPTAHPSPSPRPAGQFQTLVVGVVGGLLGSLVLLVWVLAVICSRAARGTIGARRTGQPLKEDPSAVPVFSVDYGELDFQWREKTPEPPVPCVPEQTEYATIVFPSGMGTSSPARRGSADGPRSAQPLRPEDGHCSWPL
T3 sequence (B0LAJ3 entry or part of it limits assumed): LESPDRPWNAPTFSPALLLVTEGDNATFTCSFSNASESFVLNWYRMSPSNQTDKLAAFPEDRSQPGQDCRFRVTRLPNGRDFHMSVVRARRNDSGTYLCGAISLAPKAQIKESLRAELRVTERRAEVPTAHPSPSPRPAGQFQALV

Row | Kd [1] [nM] | binding result (Fc-tagged mouse PD-1) | EC50 of SHP-2 recruitment, PD-1 reporter Jurkat cells, Ig-tethered test article on anti-human IgG coated plates [2] [nM] | EC50 of SHP-2 recruitment, PD-1 reporter Jurkat cells, soluble test article [2] [nM] | Kd (mouse PD-1) [nM] | koff (mouse PD-1) [s⁻¹] | kon (mouse PD-1) [M⁻¹ s⁻¹] | response (mouse PD-1) | Binder
1 | 58.6 | no binding |  |  |  |  |  |  | scFv moiety of the PD1AB38 (scFv, also called PD1AB38 scFv) scFv: EVQLLESGGGLVQPGGSLRLSCAASGFTFSSYDMSWVRQAPGKGLEWVSGITISGGSTYYADSVKGRFTISRDNSKNTLYLQMNSLRAEDTAVYYCARGRGGSGWLDYWGQGTTVTVSSGGGGSGGGGSGGGGSGGGGSDIVMTQSPDSLAVSLGERATINCKSSQSVLYSPNNKNYLAWYQQKPGQPPKLLIYWASTRESGVPDRFSGSGSGTDFTLTISSLQAEDVAVYYCQQYYTTPPTFGQGTRLEIK
2 |  |  | 20.9 | 0.302 | 979 | 0.0229 | 23400 |  | PD1AB38 (bispecific antibody, human IgG1, kappa) heavy: EVQLVQSGAEVKKPGASVKVSCKASGYSFTTYYMHWVRQAPGQGLEWMGIINPSGGSTSYAQKFQGRVTMTRDTSTSTVYMELSSLRSEDTAVYYCASGWVYWGQGTLVTVSSASTKGPSVFPLAPSSKSTSGGTAALGCLVKDYFPEPVTVSWNSGALTSGVHTFPAVLQSSGLYSLSSVVTVPSSSLGTQTYICNVNHKPSNTKVDKKVEPKSCDKTHTCPPCPAPEAAGAPSVFLFPPKPKDTLMISRTPEVTCVVVDVSHEDPEVKFNWYVDGVEVHNAKTKPREEQYNSTYRVVSVLTVLHQDWLNGKEYKCKVSNKALPAPIEKTISKAKGQPREPQVYTLPPSREEMTKNQVSLTCLVKGFYPSDIAVEWESNGQPENNYKTTPPVLDSDGSFFLYSKLTVDKSRWQQGNVFSCSVMHEALHNHYTQKSLSLSPGGGGGSGGGGSGGGGSEVQLLESGGGLVQPGGSLRLSCAASGFTFSSYDMSWVRQAPGKGLEWVSGITISGGSTYYADSVKGRFTISRDNSKNTLYLQMNSLRAEDTAVYYCARGRGGSGWLDYWGQGTTVTVSSGGGGSGGGGSGGGGSGGGGSDIVMTQSPDSLAVSLGERATINCKSSQSVLYSPNNKNYLAWYQQKPGQPPKLLIYWASTRESGVPDRFSGSGSGTDFTLTISSLQAEDVAVYYCQQYYTTPPTFGQGTRLEIK light: not shown
3 |  |  | 8.51 | 0.574 | 1430 | 0.0404 | 28200 | 0.0546 | PD1AB43 (bispecific antibody, human IgG1, kappa) heavy: QVQLVQSGAEVKKPGASVKVSCKASGYSFTTYYMHWVRQAPGQGLEWMGIIAPSGGSTSYAQKFQGRVTMTRDTSTSTVYMELSSLRSEDTAVYYCASGWVYWGQGTLVTVSSASTKGPSVFPLAPSSKSTSGGTAALGCLVKDYFPEPVTVSWNSGALTSGVHTFPAVLQSSGLYSLSSVVTVPSSSLGTQTYICNVNHKPSNTKVDKKVEPKSCDKTHTCPPCPAPEAAGAPSVFLFPPKPKDTLMISRTPEVTCVVVDVSHEDPEVKFNWYVDGVEVHNAKTKPREEQYNSTYRVVSVLTVLHQDWLNGKEYKCKVSNKALPAPIEKTISKAKGQPREPQVYTLPPSREEMTKNQVSLTCLVKGFYPSDIAVEWESNGQPENNYKTTPPVLDSDGSFFLYSKLTVDKSRWQQGNVFSCSVMHEALHNHYTQKSLSLSPGGGGGSGGGGSGGGGSEVQLLESGGGLVQPGGSLRLSCAASGFTFSSYDMSWVRQAPGKGLEWVSGITISGGSTYYADSVKGRFTISRDNSKNTLYLQMNSLRAEDTAVYYCARGRGGSGWLDYWGQGTTVTVSSGGGGSGGGGSGGGGSGGGGSDIVMTQSPDSLAVSLGERATINCKSSQSVLYSPNNKNYLAWYQQKPGQPPKLLIYWASTRESGVPDRFSGSGSGTDFTLTISSLQAEDVAVYYCQQYYTTPPTFGQGTRLEIK light: not shown
